Changes are numbered by the printed parent chain. Names and notes keep the numbering of the source.

Data on 11 molecules can be found in publication PMC8065156, “Specificity of AMPylation of the human chaperone BiP is mediated by TPR motifs of FICD” (Nature Communications, 2021).

In test [1] the target is T1, BiP 19–654 (human, UniProt P11021 19-654).
The target in test [2] is T1, BiP 19–654. This is another data set of the same source.
In another test the target is BiP 19–654 R197A (human, UniProt P11021 19-654, R197A). Briefly: cell-based or functional assay.
A further test deals with BiP 19–654 E217A (human, UniProt P11021 19-654, E217A). As to the kind of experiment: cell-based or functional assay.
The target of a further test is BiP 19–654 V241A (human, UniProt P11021 19-654, V241A). Briefly: cell-based or functional assay.
A further test addresses BiP 19–654 V415A (human, UniProt P11021 19-654, V415A). Briefly: cell-based or functional assay.
In a further test the target is BiP 19–654 D238A (human, UniProt P11021 19-654, D238A). As to the kind of experiment: cell-based or functional assay.
The next test deals with T2, BiP 19–654 T229A T518A (human, UniProt P11021 19-654, T229A | T518A).
T2 construct: BiP, human, residues 19-654 of NP_005338.1; source: E. coli Rosetta (DE3), purified (Ni-NTA, SEC)
As to the kind of experiment: SEC; 5 µM FICD incubated with 100 µM BiP in HKM buffer with 5 mM ATP for at least 2 h; Superdex 10/300 75 pg. The settings on record: both partners purified. Background: In gel filtration, larger molecules generally elute earlier.

For test [3], the target named is T1, BiP 19–654. Briefly: cell-based or functional assay.
A further test addresses T3, BiP 28–549 T229A (human, UniProt P11021 28-549, T229A, T518 covalently linked through TReND-2 to C404 of FICD).
T3 construct: BiP, human, residues 28-549 of NP_005338.1; also called complexed BiP; source: E. coli Rosetta (DE3), purified (Ni-NTA, SEC); not shown: His6, N-terminal, cleaved
Briefly: crystal structure; complex covalently linked through TReND-2 (C404 of FICD to T518 of BiP); crystallised with 1 mM AMP-PNP, 1 mM MgCl2, 10% glycerol; 0.2 M NaCl, 0.1 M Na/K phosphate pH 6.2, 10% PEG 8000, 19 °C. The settings on record: both partners purified.

T1 sequence (P11021 19-654): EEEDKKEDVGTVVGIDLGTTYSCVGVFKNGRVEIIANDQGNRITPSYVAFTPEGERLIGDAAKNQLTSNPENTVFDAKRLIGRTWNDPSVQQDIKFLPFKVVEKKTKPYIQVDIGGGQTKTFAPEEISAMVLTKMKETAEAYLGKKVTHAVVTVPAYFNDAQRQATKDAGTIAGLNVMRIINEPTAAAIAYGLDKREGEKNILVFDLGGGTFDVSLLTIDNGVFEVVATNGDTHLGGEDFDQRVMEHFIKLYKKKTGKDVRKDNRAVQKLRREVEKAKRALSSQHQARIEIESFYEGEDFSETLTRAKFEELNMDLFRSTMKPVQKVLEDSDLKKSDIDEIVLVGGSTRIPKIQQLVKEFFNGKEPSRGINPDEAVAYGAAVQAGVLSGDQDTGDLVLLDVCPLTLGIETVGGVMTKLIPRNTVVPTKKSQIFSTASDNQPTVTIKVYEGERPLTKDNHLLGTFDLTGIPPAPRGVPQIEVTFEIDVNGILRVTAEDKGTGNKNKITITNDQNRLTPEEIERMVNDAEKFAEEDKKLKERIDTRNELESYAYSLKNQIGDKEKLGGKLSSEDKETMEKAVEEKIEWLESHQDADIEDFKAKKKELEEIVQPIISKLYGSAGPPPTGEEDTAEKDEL
T2 sequence (P11021 19-654 T229A/T518A): as the sequence (P11021 19-654) above, with T211A, T500A counted along it
Chain of BiP 19–654 V415A (P11021 19-654 V415A): as the sequence (P11021 19-654) above, with V397A counted along it
Chain of BiP 19–654 V241A (P11021 19-654 V241A): as the sequence (P11021 19-654) above, with V223A counted along it
Chain of BiP 19–654 R197A (P11021 19-654 R197A): as the sequence (P11021 19-654) above, with R179A counted along it
Chain of BiP 19–654 E217A (P11021 19-654 E217A): as the sequence (P11021 19-654) above, with E199A counted along it
Chain of BiP 19–654 D238A (P11021 19-654 D238A): as the sequence (P11021 19-654) above, with D220A counted along it
T3 sequence (P11021 28-549 T229A): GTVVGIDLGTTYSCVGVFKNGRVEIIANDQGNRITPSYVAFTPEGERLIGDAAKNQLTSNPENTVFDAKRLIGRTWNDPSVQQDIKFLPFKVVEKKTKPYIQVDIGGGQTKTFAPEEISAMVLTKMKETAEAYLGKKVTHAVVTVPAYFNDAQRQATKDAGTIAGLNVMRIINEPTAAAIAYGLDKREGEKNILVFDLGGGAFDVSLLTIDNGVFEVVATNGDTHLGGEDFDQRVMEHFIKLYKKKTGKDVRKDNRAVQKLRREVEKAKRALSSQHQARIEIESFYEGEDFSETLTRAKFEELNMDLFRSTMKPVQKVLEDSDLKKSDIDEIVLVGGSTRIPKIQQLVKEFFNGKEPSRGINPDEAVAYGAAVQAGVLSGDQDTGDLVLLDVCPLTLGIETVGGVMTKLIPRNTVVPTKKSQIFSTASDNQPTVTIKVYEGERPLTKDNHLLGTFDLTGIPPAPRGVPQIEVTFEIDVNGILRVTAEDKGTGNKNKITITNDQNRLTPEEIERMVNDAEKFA

B1: FICD 102–458 L258D E105A (enzyme)
chain: GKLAARAALNQALEMKRQGKREKAQKLFMHALKMDPDFVDALTEFGIFSEEDKDIIQADYLYTRALTISPYHEKALVNRDRTLPLVEEIDQRYFSIIDSKVKKVMSIPKGNSALRRVMEETYYHHIYHTVAIEGNTLTLSEIRHILETRYAVPGKSDEEQNEVIGMHAAMKYINTTLVSRIGSVTISDVLEIHRRVLGYVDPVEAGRFRTTQVLVGHHIPPHPQDVEKQMQEFVQWLNSEEAMNLHPVEFAALAHYKLVYIHPFIDGNGRTSRLLMNLILMQAGYPPITIRKEQRSDYYHVLEAANEGDVRPFIRFIAKCTETTLDTLLFATTEYSVALPEAQPNHSGFKETLPVKP
On to B1, for which, in the test with BiP 19–654 [1], the AMPylation of BiP 19–654 WT by the FICD 102–458 L258D mutant, 30 min, western blot with αAMP antibody, against FICD L258D was determined as 80 % reduction.

B2: FICD 102–458 L258D E404A (enzyme)
chain: B1 chain with A4E, E303A
Take B2: in the test with BiP 19–654 [2], the AMPylation of BiP 19–654 WT by the FICD 102–458 L258D Fic-domain mutant, 30 min, western blot with αAMP antibody, against FICD L258D worked out at 75 % impaired.

B3: FICD 102–458 L258D K124A (enzyme)
chain: B1 chain with A4E, K23A
Regarding B3, the AMPylation of BiP 19–654 WT by the FICD 102–458 L258D mutant, 30 min, western blot with αAMP antibody, against FICD L258D in the test with BiP 19–654 [1] was greater than 98 % reduction.

B4: FICD 102–458 L258D K121A (enzyme)
chain: B1 chain with A4E, K20A
Consider B4, for which the AMPylation of BiP 19–654 WT by the FICD 102–458 L258D mutant, 30 min, western blot with αAMP antibody, against FICD L258D with BiP 19–654 [1] is greater than 98 % reduction.

B5: FICD 102–458 L258D K127A (enzyme)
chain: B1 chain with A4E, K26A
As for B5, the AMPylation of BiP 19–654 WT by the FICD 102–458 L258D mutant, 30 min, western blot with αAMP antibody, against FICD L258D with BiP 19–654 [1] is greater than 98 % reduction.

B6: FICD 102–458 L258D H318A (enzyme)
chain: B1 chain with A4E, H217A
In the case of B6, in the test with BiP 19–654 [2], the AMPylation of BiP 19–654 WT by the FICD 102–458 L258D Fic-domain mutant, 30 min, western blot with αAMP antibody, against FICD L258D worked out at 45 % impaired.

B7: FICD 102–458 L258D R396A (enzyme)
chain: B1 chain with A4E, R295A
For the molecule B7, the AMPylation of BiP 19–654 WT by the FICD 102–458 L258D Fic-domain mutant, 30 min, western blot with αAMP antibody, against FICD L258D in the test with BiP 19–654 [2] was 95 % decrease.

B8: FICD 102–458 L258D (enzyme, human, UniProt Q9BVA6 102-458, looked up)
chain: B1 chain with A4E
notes: FICD (HYPE), human, residues 102-458 of NP_009007.2; also called FICD L258D; monomeric FICD; source: E. coli Rosetta (DE3), purified (Ni-NTA, SEC)
With B8, the “AMPylation of the BiP 19–654 mutant by FICD 102–458 L258D, 30 min, western blot with αAMP antibody, against BiP WT” value is greater than 80 % decrease in the test with BiP 19–654 R197A; greater than 80 % decrease in the test with BiP 19–654 E217A; greater than 95 % decrease with BiP 19–654 V241A; 70 % decrease in the test with BiP 19–654 V415A; greater than 80 % decrease with BiP 19–654 D238A. The binding result with BiP 19–654 T229A T518A is reported as “binds”.

B9: FICD 102–458 L258D H401A (enzyme)
chain: B1 chain with A4E, H300A
For the molecule B9, the AMPylation of BiP 19–654 WT by the FICD 102–458 L258D Fic-domain mutant, 30 min, western blot with αAMP antibody, against FICD L258D with BiP 19–654 [2] amounted to 60 % impaired.

B10: FICD 102–445 E234G E404C^TReND-2 (enzyme, human, UniProt Q9BVA6 102-445, looked up)
chain: GKLEARAALNQALEMKRQGKREKAQKLFMHALKMDPDFVDALTEFGIFSEEDKDIIQADYLYTRALTISPYHEKALVNRDRTLPLVEEIDQRYFSIIDSKVKKVMSIPKGNSALRRVMEETYYHHIYHTVAIGGNTLTLSEIRHILETRYAVPGKSLEEQNEVIGMHAAMKYINTTLVSRIGSVTISDVLEIHRRVLGYVDPVEAGRFRTTQVLVGHHIPPHPQDVEKQMQEFVQWLNSEEAMNLHPVEFAALAHYKLVYIHPFIDGNGRTSRLLMNLILMQAGYPPITIRKEQRSDYYHVLCAANEGDVRPFIRFIAKCTETTLDTLLFATTEYSVALPEAQP
modifications: TReND-2 (thiol-reactive nucleotide derivative) on C404
As for B10, in the test with BiP 19–654 [3], the “rate of covalent ternary complex formation (SDS-PAGE, densitometry) with 0.5 mM ATP against 0.5 mM ADP” value was roughly 15 fold faster and the “rate of covalent ternary complex formation (SDS-PAGE, densitometry) without nucleotide against 0.5 mM ATP” value came out at 173 fold slower.

B11: FICD 102–445 T168A T183A E234G L258D E404C^TReND-2 (enzyme, human, UniProt Q9BVA6 102-445, looked up)
chain: B10 chain with T67A, T82A, L157D
modifications: TReND-2 (thiol-reactive nucleotide derivative) on C404, covalently linked to T518 of BiP
notes: FICD (HYPE), human, residues 102-445 of NP_009007.2; also called FICD^TReND-2; HYPE; source: E. coli Rosetta (DE3), purified (Ni-NTA, SEC)
As to B11, in the test with BiP 28–549 T229A, the binding result was “binds”.
